T1: CD79b endogenously expressed on the cell surface (malignant B cell lines, normal B cells in PBMC, CLL … (human, UniProt P40259 29-229))
T1 construct: whole, on cells; On cells CD79b stands in the B-cell receptor complex with CD79a and surface Ig; also called cell surface CD79b; endogenous CD79b
T1 sequence (looked up): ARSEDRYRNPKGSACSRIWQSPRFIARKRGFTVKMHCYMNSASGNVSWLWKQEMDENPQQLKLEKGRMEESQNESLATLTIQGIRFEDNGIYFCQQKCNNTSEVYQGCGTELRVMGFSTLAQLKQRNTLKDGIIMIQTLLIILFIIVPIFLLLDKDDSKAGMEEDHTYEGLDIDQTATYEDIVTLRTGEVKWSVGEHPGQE

T2: human CD79b recombinant protein (human, UniProt P40259 29-159)
T2 construct: also called human CD79b ECD antigen; recombinant human CD79b ECD
T2 sequence: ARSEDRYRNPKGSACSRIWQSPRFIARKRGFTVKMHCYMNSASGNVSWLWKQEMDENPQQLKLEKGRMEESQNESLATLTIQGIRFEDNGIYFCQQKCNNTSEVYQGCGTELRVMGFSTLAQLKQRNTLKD

T3: cynomolgus CD79b recombinant protein (cynomolgus)
T3 chain: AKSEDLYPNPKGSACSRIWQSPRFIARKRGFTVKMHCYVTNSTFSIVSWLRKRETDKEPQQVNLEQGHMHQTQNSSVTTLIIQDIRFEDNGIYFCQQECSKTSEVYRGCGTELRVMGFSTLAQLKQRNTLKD

B1: ch48H10 (antibody, human IgG1, kappa, V domains shown)
VH: QSVKETGGGLVQPGGSLTLSCKASGFTINIDYWISWVRQAPGKGLEWIGIIDPGDGTTYFAIWVSGRFTISTDNAQNTVDLQMNSLTAADTATYFCAREFSASAYQYDLWGPGTLVTVSS
VL: ALVMTQTPSSVSAAVGGTVSINCQASEDIESYLTWYQQKPGQPPKLLMYRASTLSSGVSSRFSASGSGTEFTLTISGVQPDDAATYYCQQGYRNKDVDNPFGGGTEVVVKR
notes: Rabbit/human chimeric IgG1 kappa; also called chimeric 48H10
B2: hu23D8 (antibody, V domains shown)
VH: EQQLLESGGGLVQPGGSLRLSCAVSGLSLSSNAINWVRQAPGKGLEWIGMIYSGGRIEYASWAKGRFTISKDSSKNTVYLQMNSLRAEDTAVYFCAKGMSPSAHSSDIWGPGTLVTVSS
VL: EGVMTQSPATLSVSPGERATLSCQASQSISDNLSWYQQKPGQPPRLLIYDASDLASGVPARFSGSGSGTEFTLTISSLQSEDFAVYYCQQDWISSNVDNTFGGGTKVEIK
notes: Humanized antibody; also called humanized 23D8
B3: hu44G2 (antibody, V domains shown)
VH: EQQLVETGGGLIQPGGSLRLSCAASGFTINIDYWISWVRQAPGKGLEWIGIIDPGDGTTYFAIWVSGRFTISFDNSKNTVYLQMNSLRAEDTAVYFCVREFSASAYQYDLWGPGTLVTVSS
VL: ELVMTQSPATLSVSPGERATLSCRASEDIENYLAWYQQKPGQPPRLLIYRASTLSSGVPARFSGSGSGTEFTLTISSLQSEDFAVYYCQQGYRNSNVDNPFGGGTKVEIK
notes: Humanized antibody; also called humanized 44G2
B4: hu48H10 (antibody, V domains shown)
VH: EQQLVETGGGLIQPGGSLRLSCAASGFTINIDYWISWVRQAPGKGLEWIGIIDPGDGTTYFAIWVSGRFTISTDNSKNTVYLQMNSLRAEDTAVYFCAREFSASAYQYDLWGPGTLVTVSS
VL: ELVMTQSPATLSVSPGERATLSCQASEDIESYLTWYQQKPGQPPRLLMYRASTLSSGVPARFSASGSGTEFTLTISSLQSEDFAVYYCQQGYRNKDVDNPFGGGTKVEIK
notes: Humanized antibody; also called humanized 48H10
B5: ch57B9 (antibody, human IgG1, kappa, V domains shown)
VH: QSVRETGGGLVQPGGSLTLSCEASEFTINIDYWISWVRQAPGKGLEWIGIIDPGDGTTYFAIWVSGRFTITRNTNLNTVDLKMTSLTEADTATYFCAREVSASAYQYDLWGPGTLVTVSS
VL: ALVMTQTPSSVSADVGGTVSINCQASEDIESYLAWYQQKPGQPPKLLIYFTSNLASGVPSRFKGSGSGTEYTLTISGVQPDDAATYYCQQGYRNSDVHNPFGGGTEVVVKR
notes: Rabbit/human chimeric IgG1 kappa; also called chimeric 57B9
B6: hu57B9 (antibody, V domains shown)
VH: EQQLVETGGGLIQPGGSLRLSCAASEFTINIDYWISWVRQAPGKGLEWIGIIDPGDGTTYFAIWVSGRFTISRDTSKNTVYLQMNSLRAEDTAVYFCAREVSASAYQYDLWGPGTLVTVSS
VL: ELVMTQSPATLSVSPGERATLSCQASEDIESYLAWYQQKPGQPPRLLIYFTSNLASGVPARFSGSGSGTEYTLTISSLQSEDFAVYYCQQGYRNSDVHNPFGGGTKVEIK
notes: Humanized antibody; also called humanized 57B9
B7: ch22D10 (antibody, human IgG1, kappa, V domains shown)
VH: QSVEESGGRLVTPGTPLTLTCTASGFTINDYHMNWVRQAPGKGLEWIGIISSNGDTYYASWAKGRFTISRTSTTVDLKMTSLTTEDTATYFCARDDRDRSYAFDPWGPGTLVTVSS
VL: ALVMTQTPSSVSAAVGGTVTINCRASEDIERYLAWYQQKPGQRPKLLIYGASTLASGVPSRFKGSGSGTEYTLTISGVQPDDAATYYCHQGDSSRNVVNVFGGGTEVVVKR
notes: Rabbit/human chimeric IgG1 kappa; also called chimeric 22D10

Tests used:
[1] = target: T1, CD79b endogenously expressed on the …; experiment: flow cytometry on PBMC of Donor 889, B cells marked with CD19-BV421; anti-human IgG1-PE; MFI (PE); table under the graph
Protocol: (§1) The binding affinities of anti-CD79b antibodies to endogenous B cells were tested. […] The cells were then incubated with […] mixture of anti-human IgG1-PE (Invitrogen, Cat #: 12-4998-82), 1:1000 dilution; CD19-BV421 (Biolegend, Cat #:302230, 1:400 dilution) for 30 min on ice, and washed with 200 ul PBS for three times before flow cytometry analysis.

[2] = target: T2, human CD79b recombinant protein; experiment: ELISA on recombinant human CD79b ECD; A 450nm
[3] = target: T1, CD79b endogenously expressed on the …; experiment: flow cytometry on PBMC of Donor 356, B cells marked with CD19-BV421; anti-human IgG1-PE; MFI (PE); table under the graph
Protocol: as §1

[4] = target: T1, CD79b endogenously expressed on the …; experiment: flow cytometry on PBMC of Donor 2235, B cells marked with CD19-BV421; anti-human IgG1-PE; MFI (PE); table under the graph
Protocol: as §1

[5] = target: T1, CD79b endogenously expressed on the …; experiment: flow cytometry on PBMC of CLL Donor 0255 (B lymphocytes); PE goat anti-human IgG Fc; MFI PE
Protocol: To determine the binding affinities of the anti-CD79b antibodies to cell surface CD79b on Chronic Lymphocytic Leukemia (CLL) patient's B lymphocytes, a cell-based binding assay was conducted. […] CLL patient PBMCs were purchased from the company Bioscience. […] Specifically, 2.5×10⁴ PBMC cells in 50 μl FACS buffer (1×PBS+2% BSA+2 mM EDTA) were seeded in each well of a V bottom 96-well plate. […] The mixture was incubated on ice for 30 minutes, and then washed twice with FACS buffer. The cells were re-suspended in 100 μl FACS buffer containing PE conjugated goat anti-human IgG Fc (1:1000) and anti-human CD19 (BV421), and incubated for 30 minutes on ice in darkness. After washing twice with FACS buffer, the cells were re-suspended in 100 μl of FACS buffer and analyzed with a Cytek cytometer.

[6] = target: T1, CD79b endogenously expressed on the …; experiment: flow cytometry on a cell line expressing endogenous CD79b (not named on the sheet or in the text); MFI (PE)
[7] = target: T1, CD79b endogenously expressed on the …; experiment: flow cytometry on BJAB cells; anti-human IgG1-PE; MFI (PE); table under the graph
Protocol: (§2) The binding affinities of anti-CD79b antibodies to malignant B cell lines were tested. […] The cells were then incubated with 100 μl anti-human IgG1-PE (Invitrogen, cat: 12-4998-82), 1:1000 dilution, for 30 min on ice, washed with 200 ul PBS for three times before flow cytometry analysis.

[8] = target: T2, human CD79b recombinant protein; experiment: BLI, antibody captured on anti-human IgG Fc probes, human CD79b in solution, 1:1 model
Protocol: (§3) Binding affinities of anti-CD79b antibodies to human CD79b recombinant proteins were tested by BLI. 10 ug/ml of anti-CD79b antibodies were captured by anti-human IgG Fc probes (Gator Bio Catalog #160024). […] Absolute kD was determined by applying a 1:1 binding model (Global Rmax unlinked).

[9] = target: T1, CD79b endogenously expressed on the …; experiment: flow cytometry on Daudi cells; anti-human IgG1-PE; MFI (PE); table under the graph
Protocol: as §2

[10] = target: T1, CD79b endogenously expressed on the …; experiment: flow cytometry on SU-DHL-4 cells; anti-human IgG1-PE; MFI (PE); table under the graph
Protocol: as §2

[11] = target: T1, CD79b endogenously expressed on the …; experiment: flow cytometry on Nalm-6 cells; anti-human IgG1-PE; MFI (PE); table under the graph
Protocol: as §2

[12] = target: T2, human CD79b recombinant protein; experiment: ELISA, coated human CD79b recombinant protein
Protocol: (§4) Binding affinities of anti-CD79b antibodies to human and cynomolgus CD79b recombinant proteins were tested by ELISA. 1 ug/ml (in PBS buffer) of human or cynomolgus CD79b recombinant proteins were coated on an ELISA plate overnight. ELISA plates were washed and blocked with blocking buffer (PBS+1% BSA) followed by incubation with serially diluted anti-CD79b primary antibodies. Anti-CD79b antibody binding was quantified using an anti-human IgG HRP secondary antibody (Biolegend Catalog #410902) and HRP substrate.

[13] = target: T1, CD79b endogenously expressed on the …; experiment: flow cytometry on Ramos cells; anti-human IgG1-PE; MFI (PE); table under the graph
Protocol: as §2

[14] = target: T2, human CD79b recombinant protein; experiment: BLI; antibody at 10 ug/ml captured on anti-human IgG Fc probes, hCD79b in solution; same value printed in the rows for 18.3 and 9.14 nM hCD79b
Protocol: as §3

[15] = target: T1, CD79b endogenously expressed on the …; experiment: flow cytometry on PBMC of Donor 2890, B cells marked with CD19-BV421; anti-human IgG1-PE; MFI (PE); table under the graph
Protocol: as §1

[16] = target: T3, cynomolgus CD79b recombinant protein; experiment: ELISA, coated cynomolgus CD79b recombinant protein
Protocol: as §4

Binder	EC50 [1] [nM]	EC50 (read off the curve) [2] [nM]	EC50 [3] [nM]	EC50 [4] [nM]	EC50 (read off the curve) [5] [nM]	EC50 (read off the curve) [6] [nM]	EC50 [7] [nM]	Kd [8] [nM]	EC50 [9] [nM]	EC50 [10] [nM]	EC50 [11] [nM]	IC50 [12] [nM]	EC50 [13] [nM]	koff [14] [s⁻¹]	kon [14] [M⁻¹ s⁻¹]	EC50 [15] [nM]	IC50 [16] [nM]
B1	0.154	~0.3	0.446	0.272	~0.9	~0.4	0.98	0.0314	1.38	0.98	2.69	0.6	1.32	1.09e-05	346000	1.17	65.3
B2	–	~0.1	–	–	–	~0.5	–	–	–	–	–	–	–	–	–	–	–
B3	–	~0.2	–	–	–	~0.2	–	–	–	–	–	–	–	–	–	–	–
B4	–	~0.1	–	–	–	~0.5	–	–	–	–	–	–	–	–	–	–	–
B5	–	~0.1	–	–	~0.9	~0.3	0.91	0.239	1.22	0.89	1.73	0.42	1.3	8.8e-05	368000	–	186
B6	–	~0.08	–	–	–	~0.2	–	–	–	–	–	–	–	–	–	–	–
B7	–	–	–	–	–	–	0.34	0.313	0.24	0.4	0.43	0.22	0.36	0.000106	338000	–	–

— patent US20260209346A1 (LTZ THERAPEUTICS, published 2026)
